These results are taken from publication PMC10448171, “Photocycle alteration and increased enzymatic activity in genetically modified photoactivated adenylate cyclase OaPAC” (The Journal of Biological Chemistry, 2023).

Substrate in the series: Nc1ncnc2c1ncn2[C@@H]1O[C@H](COP(=O)(O)OP(=O)(O)OP(=O)(O)O)[C@@H](O)[C@H]1O
The series can be described thus: EnzChek pyrophosphate coupled assay, A360, Michaelis-Menten fit. Type of series: biochemical, Oxynema acuminatum. The following applies: continuous illumination; 0-500 μM ATP; 1 μM enzyme. The source says: EnzChek pyrophosphate coupled assay, A360, Michaelis-Menten fit on OaPAC

Where a chain is given by its changes, count along the chain named. In names and notes the source's numbering stands.

B1: OaPAC (Oxynema acuminatum PCC 6304; D67N) (protein)
chain: MKRLTYISKFSRPLSGDEIEAIGRISSQKNQQANVTGVLLCLDGIFFQILEGEAEKIDRIYERILANERHTDILCLKSEVEVQERMFPDWSMQTINLDENTDFLIRPIKVLLQTLTESHRILEKYTQPSIFKIISQGTNPLNIRPKAVEKIVFFSDIVSFSTFAEKLPVEEVVSVVNSYFSVCTAIITRQGGEVTKFIGDCVMAYFDGDCADQAIQASLDILMELEILRNSAPEGSPLRVLYSGIGLAKGKVIEGNIGSELKRDYTILGDAVNVAARLEALTRQLSQALVFSSEVKNSATKSWNFIWLTDSELKGKSESIDIYSIDNEMTRKSSGGLEIARNIGHYLERVGDRQPSQIFGVKSLPL
notes: full-length, 366 residues, homodimer; N-terminal BLUF domain and C-terminal class III AC domain; pCold-I (Ni-NTA purified), E. coli BL21(DE3); Superdex 200
The term Km denotes the substrate concentration at which the rate is half of its maximum. By Vmax is commonly meant the top rate of the reaction or transport when substrate is in excess. By kcat is commonly meant the number of substrate molecules converted per active site and unit of time at saturation. As to B1, the Km was found to be 41 ± 5 µM, the Vmax is reported as 0.100 ± 0.002 mM/min and the kcat is 0.8342 s⁻¹.

B2: OaPAC (Oxynema acuminatum PCC 6304) (protein)
chain: B1 chain with N67D
notes: as for B1
Turning to B2, the Michaelis constant (Km) amounted to 31 ± 1 µM, the maximal velocity (Vmax) came out at 0.064 ± 0.007 mM/min and the kcat worked out at 0.537 s⁻¹.
